Laboratory results taken from publication PMC8597880.

Legend:
Test in all cases: BLI
[1] = target: recombinant SARS-CoV-2 RBD P.1/K417T, E484K, N501Y (SARS-CoV-2, P.1 (Gamma), RBD K417T, E484K, N501Y)
[2] = target: recombinant SARS-CoV-2 RBD B.1.617.2/L452R, T478K (SARS-CoV-2, B.1.617.2 (Delta), RBD L452R, T478K)
[3] = target: recombinant SARS-CoV-2 RBD B.1.1.7/N501Y (SARS-CoV-2, Alpha (B.1.1.7) RBD with N501Y)
[4] = target: recombinant SARS-CoV-2 RBD B.1.351/K417N, E484K, N501Y (SARS-CoV-2, B.1.351 (Beta), RBD K417N, E484K, N501Y)

NIH-CoVnb-112 (VHH)
Kd [1]: 4.16 nM
Kd [2]: 1.66 nM
Kd [3]: 3 nM
Kd [4]: 4.28 nM
